Results as given in patent US20190194322A1 (BIO TECHNE, published 2019).
Values belong to the binder of their own block, whether it stands above or below them.

B2: Recombinant human VSIG3 Fc Chimera (Fc fusion)
chain: LEVSESPGSIQVARGQTAVLPCTFTTSAALINLNVIWMVTPLSNANQPEQVILYQGGQMFDGAPRFHGRVGFTGTMPATNVSIFINNTQLSDTGTYQCLVNNLPDIGGRNIGVTGLTVLVPPSAPHCQIQGSQDIGSDVILLCSSEEGIPRPTYLWEKLDNTLKLPPTATQDQVQGTVTIRNISALSSGLYQCVASNAIGTSTCLLDLQVISPQPRNIGLIAGIEGRMDPKSCDKTHTCPPCPAPEAEGAPSVFLFPPKPKDTLMISRTPEVTCVVVDVSHEDPEVKFNWYVDGVEVHNAKTKPREEQYNSTYRVVSVLTVLHQDWLNGKEYKCKVSNKALPAPIEKTISKAKGQPREPQVYTLPPSRDELTKNQVSLTCLVKGFYPSDIAVEWESNGQPENNYKATPPVLDSDGSFFLYSKLTVDKSRWQQGNVFSCSVMHEALHNHYTQKSLSLSPGK
notes: also called rhVSIG3; rhVSIG-3

Experiments:
[1] = biological target: T1, VSIG3 ectodomain coupled to pentamerizing rat COMP helix and alkaline phosphatase (AVEXIS prey) (rat, UniProt Q5DX21 23-241; P35444 28-72); test: AVEXIS, VSIG8 Fc-fusion bait, VSIG3-COMP-AP prey (FIG. 12B)
T1 construct: used as conditioned medium; also called VSIG3 oligomer as prey; penta-VSIG3; not shown: alkaline phosphatase enzyme
T1 sequence (looked up): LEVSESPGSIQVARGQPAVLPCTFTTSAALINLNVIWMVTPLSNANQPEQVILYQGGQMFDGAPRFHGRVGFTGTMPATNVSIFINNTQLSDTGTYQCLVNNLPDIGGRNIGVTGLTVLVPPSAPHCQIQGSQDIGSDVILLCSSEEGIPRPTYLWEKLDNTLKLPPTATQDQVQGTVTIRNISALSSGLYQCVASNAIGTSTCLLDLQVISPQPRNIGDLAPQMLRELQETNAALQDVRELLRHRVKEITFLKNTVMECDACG
Description: (§1) FIG. 12B AVEXIS was used to screen interactions between VISTA and VSIG3, VSIG8, and PD1, and results were quantified by measuring absorbance at 650 nm using the alkaline phosphatase reagent BluePhos. […] FIG. 12C.
(§2) The ectodomains of VSIG3, VISTA, and other immunoregulatory receptors were cloned into a construct containing the rat cartilage oligomeric matrix protein (COMP), which forms a covalent, pentameric coiled-coil helix oligomer (Malashkevich et al. Science. 274 (1996) 761-5), followed by an alkaline phosphatase enzyme for detection. […] Conditioned media containing the oligomeric prey protein fused to the COMP helical oligomer and alkaline phosphatase was incubated and washed, and the interaction was quantitatively measured by detection of alkaline phosphatase activity using the BLUEPHOS reagent (KPL/Sera Care, Milford, Mass.).

[2] = biological target: T2, Recombinant human VISTA Fc Chimera (human (homo sapiens)); test: ELISA, rhVISTA coated at 2 µg/mL, biotin-labelled rhVSIG3 titrated, streptavidin-HRP (FIG. 1A)
T2 construct: also called rhVISTA; VISTA-Fc bait
Description: The non-specific binding is subtracted and in all cases was less than 5% of the total signal.

[3] = biological target: T3, VSIG8 ectodomain coupled to pentamerizing rat COMP helix and alkaline phosphatase (AVEXIS prey) (rat, UniProt P0DPA2 22-263; P35444 28-72); test: AVEXIS, VSIG3 Fc-fusion bait, VSIG8-COMP-AP prey (FIG. 12B)
T3 construct: not shown: alkaline phosphatase enzyme
T3 sequence (looked up): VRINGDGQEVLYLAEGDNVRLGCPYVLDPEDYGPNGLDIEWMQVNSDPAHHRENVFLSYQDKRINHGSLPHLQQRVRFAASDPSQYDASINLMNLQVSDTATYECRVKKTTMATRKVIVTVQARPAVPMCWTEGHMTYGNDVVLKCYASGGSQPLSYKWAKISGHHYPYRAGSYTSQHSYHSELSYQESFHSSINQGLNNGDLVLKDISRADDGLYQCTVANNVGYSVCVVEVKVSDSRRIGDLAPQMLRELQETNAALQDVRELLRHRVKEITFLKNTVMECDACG
Description: as §1, §2

[4] = biological target: T4, PD1 ectodomain coupled to pentamerizing rat COMP helix and alkaline phosphatase (AVEXIS prey) (rat, UniProt Q15116 25-170; P35444 28-72); test: AVEXIS, VSIG3 Fc-fusion bait, PD1-COMP-AP prey (FIG. 12B)
T4 construct: not shown: alkaline phosphatase enzyme
Description: as §1, §2

[5] = biological target: B2; test: SPR (Biacore), VSIG3-Fc immobilised, antibody as analyte (FIG. 14)
Description: The affinity of these blocking antibodies to purified recombinant VSIG3 was measured by surface plasmon resonance (SPR) using a Biacore T200 in two assay orientations. […] Dilutions of antibody were then flowed over the surface and the double reference subtracted data fit to a 1:1 Langmuir binding model with Biacore T200 Evaluation Software version 3.1 (FIG. 14). In a separate assay, a fusion protein containing protein A/G/L (Novus Biologicals, Littleton, Colo.) was covalently immobilized to the surface of a CM5 chip by standard amine coupling chemistry. Antibody was captured, followed by dilutions of VSIG3 His-fusion. Double reference subtracted data were fit to a 1:1 Langmuir binding model as described above (FIG. 15).

- binding result [1]: no binding
B1: VSIG8 Fc-fusion (AVEXIS bait) (Fc fusion, UniProt P0DPA2 22-263, looked up)
chain: VRINGDGQEVLYLAEGDNVRLGCPYVLDPEDYGPNGLDIEWMQVNSDPAHHRENVFLSYQDKRINHGSLPHLQQRVRFAASDPSQYDASINLMNLQVSDTATYECRVKKTTMATRKVIVTVQARPAVPMCWTEGHMTYGNDVVLKCYASGGSQPLSYKWAKISGHHYPYRAGSYTSQHSYHSELSYQESFHSSINQGLNNGDLVLKDISRADDGLYQCTVANNVGYSVCVVEVKVSDSRRIG
notes: extracellular domain; not shown: Fc

Binder: B2
- EC50 [2]: ~0.25 µg/mL
- binding result [3]: no binding
- binding result [4]: no binding

- binding result [5]: binds
B3: mouse anti-human VSIG3 monoclonal antibody from clone #973428 (antibody, IgG1, V domains shown)
VH: EVQLVESGGDLVKPGGSLKLSCAASGFTFNSYGMSWVRQTPDKRLEWVAIISSGGSYTYYPDSVKGRFTISRDNAKNTLYLQMSSLKSEDTAMYYCARLSYYYGSSPYAMDYWGQGTSVTISS
VL: DIVLTQSPASLAVSLGQRATISCRASKSVSTSGYSYMHWYQQKPGQSPKLLIYLASNLESGVPARCSGSGSGTDFTLNIHPVEEEDAATYYCQHSRELPYTFGGGTKLEIKR
notes: also called fusion 9734 clone 28

- binding result [5]: binds
B4: mouse anti-human VSIG3 monoclonal antibody from clone #973401 (antibody, IgG1, V domains shown)
VH: QVQLQQSAAELARPGASVKMSCKASGYTFATYTIHWVKQRPGQGLEWIGYINPSSGYTEYNQKFKDKTTLTADKSSSTAYMQLSSLTSEDSAVYYCARREVYGSGSMDYWGQGTSVTVSS
VL: QIVLTQSPALMSASPGEKVTMTCSASSSVSFMYWYHQKPRSSPKPWIYLTSNLASGVPARFSGSGSGTSYSLTISSMEAEDAATYYCQQWSSNPLTFGAGTKLELKR
notes: also called fusion 9734 clone 1
